Reference: the supplement of paper PMC9170038

Test system: MS2 coat protein
Assay: apparent KD of MS2 coat protein; higher = weaker reporter binding
Details: Eterna round: R107
Description: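 RNA-MaP round R107: designed RNA switches with theophylline, tryptophan, arginine or FMN aptamers are transcribed on-chip within common flanks. They are titrated with SNAP-549-labelled MS2 coat protein in RNA-MaP buffer (100 mM Tris pH 7.5, 80 mM KCl, 4 mM MgCl2), without ligand or with the indicated ligand. Median apparent KD per design.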

[1] = input ligand: theophylline 20 uM
[2] = input ligand: theophylline 2 mM
[3] = input ligand: tryptophan 2.4 mM

Sequence	apparent KD of MS2 coat protein (input ligand: arginine 13.2 mM) [nM]	apparent KD of MS2 coat protein (input ligand: none) [nM]	apparent KD of MS2 coat protein [1] [nM]	apparent KD of MS2 coat protein [2] [nM]	apparent KD of MS2 coat protein [3] [nM]
AAACAGUCGGACAUGAGGAUCACCCAUGUGCGAGGACCGGUACGGCCGCCACUCGACAAGGGCGGUCCCGAAGCAAACAUACGCG [Enedquceor]	12.2	16.5	33.7	21.3	25.4
AAACAUUGCUCAGAUACCAGACAUGAGGAUCACCCAUGUACCGAGGUACCCGAAAGGAAUGUCCCUUGGCAGCUGAGCAAUGAAA [MAT - Exclusion Theophlline B - Mod of Eli - D22]	14.2	–	15.3	–	11.4
AAACGUUGCUCAGAUACCAGACAUGAGGAUCACCCAUGUACCAAGGUACCCGAAAGGAAUGUCCCUUGGCAGCUGAGCAACGAAA [MAT - Exclusion Theophlline B - Mod of Eli - D21]	11.1	–	11.9	–	10.4
AAAUAAAUACAUGAGGAUCACCCAUGUGAAGGAGCGCGCGUUAGCGCAGGUAGGUCGCACAUGAACUCCAAAGUGCGAAAGCACA [MAT - Exclusion Arginine A - Mod of Eli - D9]	14.5	20	23.1	34.1	20.9
AAAUGUACGUCGGCCGCCACUGCGCUGAAGACAGUCACAUGAGGAUCACCCAUGUACGACAAGGGUAGGACCGGGAUGUGAGGGU [Rate]	45.1	–	130	217	–
AACAUACAAUAAAAGGUGGAAAUAAGGCGGCGAGGACCGGUACGGCCGCCACUCGCGUACAUGAGGAUCACCCAUGUCUGAAACU [Same State - Tryptophan A (Freestyle 2)]	12.5	22.8	24.2	28.8	19.1
AACAUCUGGCGUGAUACCAGCCACAUGAGGAUCACCCAUGUCAACACUCGCAAUUGCGACGGCCCUUGGCAGCACGCAUCCUCAG [Sorioncege]	49	–	34.8	–	60.9
AACAUGAGGAUCACCCAUGUGUCCUCGAAACGAGGACCGGUACGGCCGCCACUCGAAAAGGUGUUGACGAAAAGUCAGCACCAAA [Mat - Exclusion - Trytophan A - D16]	129	264	451	451	820
AACGUAUACAGAAGGAGCGUGAAAUAAGUAAAUUAAUAAUAAACAUGAGGAUCACCCAUGUCACAGGUAGGUCGCUGUAUUCGUA [JR_ExcArginiB_Sub017]	15.5	21.5	23.6	21.5	18.4
AACGUAUACAGAAGGAGCGUGAUUUAUAAUUCUUUAAAAUAUACAUGAGGAUCACCCAUGUCACAGGUAGGUCGCUGUAUUCGUA [JR_ExcArginiB_Sub024]	29.8	35.7	43.1	35.2	33.2
AACUUCGCAUAGGAAAACUAUGUGAAGAAUCGAGGACCGGUACGGCCGCCACUCGUCCUCAACAUGAGGAUCACCCAUGUAAUAA [Mat - Exclusion - Trytophan A - D4]	22.1	–	25.4	22.6	–
AAGACAUGAGGAUCACCCAUGUGUCAUGAAGGAGCGUCGGAAAUGACAGGUAGGUCGCAUGACCGUUGGCGCCGGAAACGGCGCA [SSAA #15]	23.8	30.5	35.3	33.3	23.5
AAGACGGUCGGAAGGAGCGGUACAUGAGGAUCACCCAUGUACUUCUGGGCAUCCGUAGUGUGCCAGGUAGGUCGCCGAUUGCGGG [XArg-B12]	32.7	22.4	36.3	24.9	22.8
AAGGAAAAGGCGGCCGCCACUGGAAAGGCGAAAGCCAAGAAAACAUGAGGAUCACCCAUGUCAUGUAGGACCGGGCCAAAAGGAA	10	21.9	26.3	14.7	23.7
AAUAAACAUGAGGAUCACCCAUGUAUGGAAGGAGCGGUAAAUAAACCAGGUAGGUCGCCAGUGUGAGGGUCAUCUAUGUAAUAAA [Exclusion - Arginine A (Freestyle 1)]	40.8	32	53.6	74.9	33.4
AAUAACAUGAGGAUCACCCAUGUAAAAGAUACCAGGGUGAUGAUCCUCCCUUGGCAGCUUACAGCUGAUCAAUAAGAUCGGCUGA [TheoAS #Tail #MS2BeforeAptamer #BothOrNeither]	87.5	–	256	–	184
AAUAAGUACUUUGAUACCAGCCUGCCAUCAUGCUAAUUUACAUGAGGAUCACCCAUGUUAGGCCCUUGGCAGCAAAGUGCAAUAA [XTheo B #1]	12.8	–	15.8	–	12.4
AAUACCGGAUCGGCCGCCACUGGUUGGCCCUGUGUACAUGAGGAUCACCCAUGUCCAUCCCAAGCCAGGACCGGGAUCUUUGUGU [Bedice]	17.1	–	24.9	18.5	–

Sequence	apparent KD of MS2 coat protein (input ligand: arginine 13.2 mM) [nM]	apparent KD of MS2 coat protein (input ligand: none) [nM]	apparent KD of MS2 coat protein [1] [nM]	apparent KD of MS2 coat protein [2] [nM]	apparent KD of MS2 coat protein [3] [nM]
AAUCAUAGGGCGGCCGCCACUAAACAUGAGGAUCACCCAUGUCUCGAGGGCUUGCGUUUGGGAAGUAGGACCGGGCCAAUAGUAA [Tryp B Ex Mod2]	18	19.1	23	17	16.1
AAUGAACAUGAGGAUCACCCAUGUCGUGAUACCAGCCGUAAGAGUGGCCCUUGGCAGCGCCAUGAGGACAACAACAUACAUGAGG [Same State Theophylline A]	22.9	–	29.7	–	24.8
AAUGAGUGGUGGUCAAGUGAUCCUCAUGAACGAGGACCGGUACGGCCGCCACUCGAUAACAUGAGGAUCACCCAUGUAAUAAUAA [|T'-M'-Trp-Ms2|_Design8]	15.6	–	18.9	22.4	–
AAUUAAAACUGAAGGAGCGUCGUGCGUGGGUGCGUCCCACAUGAGGAUCACCCAUGUGGUUGACAGGUAGGUCGCAGAAUAAUUU [Exclusion - Arginine B]	66.9	49.7	95.5	155	36.6
AAUUAAACAUCGGCCGCCACUUACUCAUGAGGUAACAACAUGAGGAUCACCCAUGUUUGAGGAUCAAGGACCGGGAUGUAAUAAU [AstrosSSTryB#2]	23.2	–	38.5	36.8	–
AAUUAUCACGGAAGGAGCGUCAUGAAAUUGAUACAUGAGGAUCACCCAUGUGAGUGUUAGAGACAGGUAGGUCGCCGAUUAUUGA [JR_AAArginiB_Sub028]	24.9	30.7	43.1	49.3	31
AAUUCCUCACAUGAGGAUCACCCAUGUGAAGGAGCGCCGAAUAAGGCAGGUAGGUCGCACAUGGAAACCUCUACGAAAGUAGUAA [XArg-A 3 NuV1V2]	16.5	15.8	20.8	18.2	15.6
AAUUUGUCGGGUGAUACCAGCCUCGGCGCAUCUCGCGCUGAACAUGAGGAUCACCCAUGUGGCCCUUGGCAGCACAUGACAAAUC [Veerdira]	153	–	587	–	757
ACAACAUGAGGCGAUACCAGAGGCAACAUGAGGAUCACCCAUGUUCACCCAUGUGAUCACCUCCCUUGGCAGCGCACAUGAGGAU [Same State - Theophylline B #1]	13.7	–	17	–	12.3
ACAUCCAGAUUAAUCGUGGGCAUACUCGAUACCAGUAUUUUAAUCUACCCUUGGCAGCGACAUGAGGAUCACCCAUGUGCGAUGA [XTheo A #11]	11.7	–	13.9	–	12.4
ACAUGAGGAUCACCCAUGUACAUGAGGGAAGGAGCGGUACAUGUGCCAGGUAGGUCGCCCAACAGCAUCAGCCAUGUACAACAGG [zqwmullin]	41.3	162	72.6	79.2	61
ACAUGAGGAUCACCCAUGUAGCCUAGGGAAGGAGCGUCGUAAGAGACAGGUAGGUCGCCCGCAUGUGAGUCAUCCAUGACGAGGG [#18 Same State - Arginine A]	25.7	25.9	30.1	23.6	21.1
ACAUGAGGAUCACCCAUGUGUCCUCGAAAACGAGGACCGGUACGGCCGCCACUCGAAAUAAGCUGUUGACGAAAAGUCAGCAGCA [Mat - Exclusion - Trytophan A - D21]	74.5	126	173	152	316
ACAUGAGGAUCACCCAUGUGUGUAAGUUCUCGAGGACCGGUACGGCCGCCACUCGAACGAGUGUAACGUUAUACUUAGUAUAAUG [SS Trp A s4]	22.6	11.4	21.3	15.2	11.4
ACAUGAGGAUCACCCAUGUUAAACAGGGUGCGAGGACCGGUACGGCCGCCACUCGGACAUUAUUACGAGUGAAUGGUAACGAUGU [#13 Exclusion Tryptophan A]	21.1	–	33.6	26.5	–
ACAUGAGGAUCACCCAUGUUCCUCAUUGAUACCAGUGAAUUUAGACGCCCUUGGCAGCGAGUUUUUUUAUAAGUUUUUUUUUUUU [6.J]	276	–	913	–	874
ACAUGAGGAUCACCCAUGUUGCUGACAGAAGGAGCGUGAUUAAGCACAGGUAGGUCGCUGUUGGUAUCGAGCGUUAGCUCGAUAC [SSArg A #8]	34.6	32	41.7	33.7	50
ACAUGUUGGUGGUACCAACGAAGGCGGAAACGAGGACCGGUACGGCCGCCACUCGGCGACAUGAGGAUCACCCAUGUGGUUAAAA [Exclusion - Tryptophan A (Freestyle 3)]	–	398	134	95.7	70
